Measured values: IntAct's records for PubMed 20869963

B1: Protein Rex (Human T-cell leukemia virus 1 (strain Japan ATK-1 subtype A)), P0C205 (parent)
chain: MPKTRRRPRRSQRKRPPTPWPTSQGLDRVFFSDTQSTCLETVYKATGAPSLGDYVRPAYIVTPYWPPVQSIRSPGTPSMDALSAQLYSSLSLDSPPSPPREPLRPSRSLPRQSLIQPPTFHPPSSRPCANTPPSEMDTWNPPLGSTSQPCLFQTPDSGPKTCTPSGEAPLSACTSTSFPPPSPGPSCPT

Variants of: B1
Settings: with dicer_human DICER1, Q9UPY3
Y64D was tested, and the “effect of a mutation on the interaction” value was “disrupting interaction”.
For W65L, the “effect of a mutation on the interaction” value was “disrupting interaction”.

Variants of: B1
Settings: with dicer_human DICER1, Q9UPY3
Remark: another data set of the same source
With T119D the “effect of a mutation on the interaction” value was “disrupting interaction”.
In the case of H121L, the “effect of a mutation on the interaction” value is reported as “disrupting interaction”.
In the case of F120L, the “effect of a mutation on the interaction” value is reported as “disrupting interaction”.

Variants of: B1
Settings: with dicer_human DICER1, Q9UPY3
Remark: another data set of the same source
L92A was tested, and the “effect of a mutation on the interaction” value was “decreasing interaction”.
L90A was tested, and the “effect of a mutation on the interaction” value was “decreasing interaction”.

Variants of: B1
Settings: with dicer_human DICER1, Q9UPY3
Remark: another data set of the same source
For R5D, the “effect of a mutation on the interaction” value was “decreasing interaction”.
R7D was tested, and the “effect of a mutation on the interaction” value was “decreasing interaction”.
In the case of R6D, the “effect of a mutation on the interaction” value is reported as “decreasing interaction”.
